In the data set the target is T1, SFB-ZC3H18 (human, UniProt Q86VM9 1-953).
T1 sequence: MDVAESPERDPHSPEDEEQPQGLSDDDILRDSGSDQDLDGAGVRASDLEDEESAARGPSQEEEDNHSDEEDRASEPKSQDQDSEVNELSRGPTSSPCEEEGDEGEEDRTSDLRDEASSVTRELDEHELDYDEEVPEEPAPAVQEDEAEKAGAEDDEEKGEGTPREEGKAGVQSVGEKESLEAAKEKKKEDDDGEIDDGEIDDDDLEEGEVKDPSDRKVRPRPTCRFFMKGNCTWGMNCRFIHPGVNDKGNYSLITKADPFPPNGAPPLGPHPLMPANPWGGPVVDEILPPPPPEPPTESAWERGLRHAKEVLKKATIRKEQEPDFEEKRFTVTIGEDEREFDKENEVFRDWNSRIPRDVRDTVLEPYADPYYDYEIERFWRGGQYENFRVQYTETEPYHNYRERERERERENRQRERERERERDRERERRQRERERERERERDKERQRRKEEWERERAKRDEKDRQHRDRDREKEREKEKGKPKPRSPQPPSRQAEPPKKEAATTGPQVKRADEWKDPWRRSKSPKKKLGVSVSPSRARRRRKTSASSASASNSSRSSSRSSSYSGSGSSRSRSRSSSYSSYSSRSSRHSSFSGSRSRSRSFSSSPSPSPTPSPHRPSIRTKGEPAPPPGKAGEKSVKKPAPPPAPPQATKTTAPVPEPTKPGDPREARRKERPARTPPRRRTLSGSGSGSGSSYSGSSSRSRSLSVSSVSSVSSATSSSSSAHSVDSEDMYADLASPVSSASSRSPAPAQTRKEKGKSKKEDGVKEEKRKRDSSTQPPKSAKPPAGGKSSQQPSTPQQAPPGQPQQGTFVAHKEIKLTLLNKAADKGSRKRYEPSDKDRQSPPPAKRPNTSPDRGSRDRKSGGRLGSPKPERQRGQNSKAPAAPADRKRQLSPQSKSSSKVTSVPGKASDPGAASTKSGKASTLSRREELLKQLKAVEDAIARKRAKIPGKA
In words: EMSA; cold competition and anti-S-tag supershift confirm; EMSA: 20 mM Tris-HCl pH 8.0, 50 mM NaCl, 1 mM MgCl2, 5 mg/ml BSA, 1 mM DTT, 20 min at room temperature; 5% native gel, 0.25x TBE, 4 °C. Particulars: protein: recombinant; C-terminal 6xHis; label: 32P 5' end; duplex of complementary 50-mers.

One molecule from PMC6789141, “ZC3H18 specifically binds and activates the BRCA1 promoter to facilitate homologous recombination in ovarian cancer” can be followed below.

B1: E2FA/BWT (dsDNA)
DNA 1: TAGCCCCTTGGTTTCCGTGGCAACGGAAAAGCGCGGGAATTACAGATAAA
DNA 2: TTTATCTGTAATTCCCGCGCTTTTCCGTTGCCACGGAAACCAAGGGGCTA
On to B1, for which the binding result is “binds”.
